Results from US20250327097A1, “ORGANISMS PRODUCING LESS CROTONIC ACID” (Global Bioenergies, priority 2021, published 2025).

test system: 3-methylcrotonic acid; format: biochemical, Yersinia frederiksenii; parameters: key: “+” representing a low increase in activity; “++++” representing a high increase in activity

Molecule	Activity relative to WT
I283T-N285P-N287T-Q290E-S322T-N388M-K394R-H419A-C430A-L432F-L434W-S436N-dG462 (protein) MFLKSLREQINLLKRQGDLRIINRPVDSYLEAAAIIRRSTETKAPVPLMTNIKGYPGCSIVGGLAALSSNPEYPLSRVAMSLGLSTTASAQSIVQYLIDGLKKTPYLPVEIDSNSAPCKQNILRGEDASLAHFPIPQVHQHDGNRYVNTWGVFIVESPDGQWCNWSIQRVQYLNDRQMIALVFPSQHISDIWEEWVKIGKPMPYALVQGCEPIVPYIAGLPLLERNVNEAEYIGALYGKGIEVVKCETHDLRVPASSEVVIEGYFAITREGVEGPFGEFAGYTPPETSLEPILSITAISWQDDPIWPVVAEGKPVDEYHTCTGIGDAAAIQNVLLTANLPVSFVWVPLYSACHLMIVSINRHWRQTHPDLTSEQLTKKVGDVIHQTRMSIKLPRIVVLDDDVDPADTESLLWALATRIAPERKRYFYESAIFPWLNCYSEEERHNRKGKRVIIDALLPENHGAISSFDYAYPDDIKQRVLMHWETDFSHD	++++
I283T-N285P-N287T-Q290E-S322T-N388M-K394R-C430A-I431K-L432F-L434W-S436N-dG462 (protein) MFLKSLREQINLLKRQGDLRIINRPVDSYLEAAAIIRRSTETKAPVPLMTNIKGYPGCSIVGGLAALSSNPEYPLSRVAMSLGLSTTASAQSIVQYLIDGLKKTPYLPVEIDSNSAPCKQNILRGEDASLAHFPIPQVHQHDGNRYVNTWGVFIVESPDGQWCNWSIQRVQYLNDRQMIALVFPSQHISDIWEEWVKIGKPMPYALVQGCEPIVPYIAGLPLLERNVNEAEYIGALYGKGIEVVKCETHDLRVPASSEVVIEGYFAITREGVEGPFGEFAGYTPPETSLEPILSITAISWQDDPIWPVVAEGKPVDEYHTCTGIGDAAAIQNVLLTANLPVSFVWVPLYSACHLMIVSINRHWRQTHPDLTSEQLTKKVGDVIHQTRMSIKLPRIVVLDDDVDPADTESLLWALATRIHPERKRYFYESAKFPWLNCYSEEERHNRKGKRVIIDALLPENHGAISSFDYAYPDDIKQRVLMHWETDFSHD	++++
I283T-N285P-N287T-Q290E-S322T-N388M-K394R-E421L-C430A-L432F-L434W-S436N-dG462 (protein) MFLKSLREQINLLKRQGDLRIINRPVDSYLEAAAIIRRSTETKAPVPLMTNIKGYPGCSIVGGLAALSSNPEYPLSRVAMSLGLSTTASAQSIVQYLIDGLKKTPYLPVEIDSNSAPCKQNILRGEDASLAHFPIPQVHQHDGNRYVNTWGVFIVESPDGQWCNWSIQRVQYLNDRQMIALVFPSQHISDIWEEWVKIGKPMPYALVQGCEPIVPYIAGLPLLERNVNEAEYIGALYGKGIEVVKCETHDLRVPASSEVVIEGYFAITREGVEGPFGEFAGYTPPETSLEPILSITAISWQDDPIWPVVAEGKPVDEYHTCTGIGDAAAIQNVLLTANLPVSFVWVPLYSACHLMIVSINRHWRQTHPDLTSEQLTKKVGDVIHQTRMSIKLPRIVVLDDDVDPADTESLLWALATRIHPLRKRYFYESAIFPWLNCYSEEERHNRKGKRVIIDALLPENHGAISSFDYAYPDDIKQRVLMHWETDFSHD	++++
I283T-N285P-N287T-Q290E-S322T-N388M-K394R-C430A-I431T-L432F-L434W-S436N-dG462 (protein) MFLKSLREQINLLKRQGDLRIINRPVDSYLEAAAIIRRSTETKAPVPLMTNIKGYPGCSIVGGLAALSSNPEYPLSRVAMSLGLSTTASAQSIVQYLIDGLKKTPYLPVEIDSNSAPCKQNILRGEDASLAHFPIPQVHQHDGNRYVNTWGVFIVESPDGQWCNWSIQRVQYLNDRQMIALVFPSQHISDIWEEWVKIGKPMPYALVQGCEPIVPYIAGLPLLERNVNEAEYIGALYGKGIEVVKCETHDLRVPASSEVVIEGYFAITREGVEGPFGEFAGYTPPETSLEPILSITAISWQDDPIWPVVAEGKPVDEYHTCTGIGDAAAIQNVLLTANLPVSFVWVPLYSACHLMIVSINRHWRQTHPDLTSEQLTKKVGDVIHQTRMSIKLPRIVVLDDDVDPADTESLLWALATRIHPERKRYFYESATFPWLNCYSEEERHNRKGKRVIIDALLPENHGAISSFDYAYPDDIKQRVLMHWETDFSHD	++++
I283T-N285P-N287T-Q290E-S322T-N388M-K394R-C430A-I431A-L432F-L434W-S436N-dG462 (protein) MFLKSLREQINLLKRQGDLRIINRPVDSYLEAAAIIRRSTETKAPVPLMTNIKGYPGCSIVGGLAALSSNPEYPLSRVAMSLGLSTTASAQSIVQYLIDGLKKTPYLPVEIDSNSAPCKQNILRGEDASLAHFPIPQVHQHDGNRYVNTWGVFIVESPDGQWCNWSIQRVQYLNDRQMIALVFPSQHISDIWEEWVKIGKPMPYALVQGCEPIVPYIAGLPLLERNVNEAEYIGALYGKGIEVVKCETHDLRVPASSEVVIEGYFAITREGVEGPFGEFAGYTPPETSLEPILSITAISWQDDPIWPVVAEGKPVDEYHTCTGIGDAAAIQNVLLTANLPVSFVWVPLYSACHLMIVSINRHWRQTHPDLTSEQLTKKVGDVIHQTRMSIKLPRIVVLDDDVDPADTESLLWALATRIHPERKRYFYESAAFPWLNCYSEEERHNRKGKRVIIDALLPENHGAISSFDYAYPDDIKQRVLMHWETDFSHD	++++
I283T-N285P-N287T-Q290E-S322T-N388M-K394R-C430A-I431N-L432F-L434W-S436N-dG462 (protein) MFLKSLREQINLLKRQGDLRIINRPVDSYLEAAAIIRRSTETKAPVPLMTNIKGYPGCSIVGGLAALSSNPEYPLSRVAMSLGLSTTASAQSIVQYLIDGLKKTPYLPVEIDSNSAPCKQNILRGEDASLAHFPIPQVHQHDGNRYVNTWGVFIVESPDGQWCNWSIQRVQYLNDRQMIALVFPSQHISDIWEEWVKIGKPMPYALVQGCEPIVPYIAGLPLLERNVNEAEYIGALYGKGIEVVKCETHDLRVPASSEVVIEGYFAITREGVEGPFGEFAGYTPPETSLEPILSITAISWQDDPIWPVVAEGKPVDEYHTCTGIGDAAAIQNVLLTANLPVSFVWVPLYSACHLMIVSINRHWRQTHPDLTSEQLTKKVGDVIHQTRMSIKLPRIVVLDDDVDPADTESLLWALATRIHPERKRYFYESANFPWLNCYSEEERHNRKGKRVIIDALLPENHGAISSFDYAYPDDIKQRVLMHWETDFSHD	++++
I283T-N285P-N287T-Q290E-S322T-N388M-K394R-C430S-L432F-L434W-S436N-dG462 (protein) MFLKSLREQINLLKRQGDLRIINRPVDSYLEAAAIIRRSTETKAPVPLMTNIKGYPGCSIVGGLAALSSNPEYPLSRVAMSLGLSTTASAQSIVQYLIDGLKKTPYLPVEIDSNSAPCKQNILRGEDASLAHFPIPQVHQHDGNRYVNTWGVFIVESPDGQWCNWSIQRVQYLNDRQMIALVFPSQHISDIWEEWVKIGKPMPYALVQGCEPIVPYIAGLPLLERNVNEAEYIGALYGKGIEVVKCETHDLRVPASSEVVIEGYFAITREGVEGPFGEFAGYTPPETSLEPILSITAISWQDDPIWPVVAEGKPVDEYHTCTGIGDAAAIQNVLLTANLPVSFVWVPLYSACHLMIVSINRHWRQTHPDLTSEQLTKKVGDVIHQTRMSIKLPRIVVLDDDVDPADTESLLWALATRIHPERKRYFYESSIFPWLNCYSEEERHNRKGKRVIIDALLPENHGAISSFDYAYPDDIKQRVLMHWETDFSHD	++++
I283T-N285P-N287T-Q290E-S322T-N388M-K394R-S429V-C430A-L432F-L434W-S436N-dG462 (protein) MFLKSLREQINLLKRQGDLRIINRPVDSYLEAAAIIRRSTETKAPVPLMTNIKGYPGCSIVGGLAALSSNPEYPLSRVAMSLGLSTTASAQSIVQYLIDGLKKTPYLPVEIDSNSAPCKQNILRGEDASLAHFPIPQVHQHDGNRYVNTWGVFIVESPDGQWCNWSIQRVQYLNDRQMIALVFPSQHISDIWEEWVKIGKPMPYALVQGCEPIVPYIAGLPLLERNVNEAEYIGALYGKGIEVVKCETHDLRVPASSEVVIEGYFAITREGVEGPFGEFAGYTPPETSLEPILSITAISWQDDPIWPVVAEGKPVDEYHTCTGIGDAAAIQNVLLTANLPVSFVWVPLYSACHLMIVSINRHWRQTHPDLTSEQLTKKVGDVIHQTRMSIKLPRIVVLDDDVDPADTESLLWALATRIHPERKRYFYEVAIFPWLNCYSEEERHNRKGKRVIIDALLPENHGAISSFDYAYPDDIKQRVLMHWETDFSHD	++++
I283T-N285P-N287T-Q290E-S322T-N388M-K394R-C430A-I431P-L432F-L434W-S436N-dG462 (protein) MFLKSLREQINLLKRQGDLRIINRPVDSYLEAAAIIRRSTETKAPVPLMTNIKGYPGCSIVGGLAALSSNPEYPLSRVAMSLGLSTTASAQSIVQYLIDGLKKTPYLPVEIDSNSAPCKQNILRGEDASLAHFPIPQVHQHDGNRYVNTWGVFIVESPDGQWCNWSIQRVQYLNDRQMIALVFPSQHISDIWEEWVKIGKPMPYALVQGCEPIVPYIAGLPLLERNVNEAEYIGALYGKGIEVVKCETHDLRVPASSEVVIEGYFAITREGVEGPFGEFAGYTPPETSLEPILSITAISWQDDPIWPVVAEGKPVDEYHTCTGIGDAAAIQNVLLTANLPVSFVWVPLYSACHLMIVSINRHWRQTHPDLTSEQLTKKVGDVIHQTRMSIKLPRIVVLDDDVDPADTESLLWALATRIHPERKRYFYESAPFPWLNCYSEEERHNRKGKRVIIDALLPENHGAISSFDYAYPDDIKQRVLMHWETDFSHD	++++
I283T-N285P-N287T-Q290E-S322T-N388M-K394R-C430A-I431C-L432F-L434W-S436N-dG462 (protein) MFLKSLREQINLLKRQGDLRIINRPVDSYLEAAAIIRRSTETKAPVPLMTNIKGYPGCSIVGGLAALSSNPEYPLSRVAMSLGLSTTASAQSIVQYLIDGLKKTPYLPVEIDSNSAPCKQNILRGEDASLAHFPIPQVHQHDGNRYVNTWGVFIVESPDGQWCNWSIQRVQYLNDRQMIALVFPSQHISDIWEEWVKIGKPMPYALVQGCEPIVPYIAGLPLLERNVNEAEYIGALYGKGIEVVKCETHDLRVPASSEVVIEGYFAITREGVEGPFGEFAGYTPPETSLEPILSITAISWQDDPIWPVVAEGKPVDEYHTCTGIGDAAAIQNVLLTANLPVSFVWVPLYSACHLMIVSINRHWRQTHPDLTSEQLTKKVGDVIHQTRMSIKLPRIVVLDDDVDPADTESLLWALATRIHPERKRYFYESACFPWLNCYSEEERHNRKGKRVIIDALLPENHGAISSFDYAYPDDIKQRVLMHWETDFSHD	++++
